Each block holds one binder with its values, some of them ahead of it. *1 amine or outer side, *2 acyl side, *3 side chain or, on linkers, in order; H or OH if unused. Where no end group is shown, it is not given here. Side-chain parts run from the residue outwards. [ ]: non-standard residue; d: D form. The star is where a group is joined. C20 diacid = O=C(O)CCCCCCCCCCCCCCCCCCC(=O)*; γGlu = O=C(O)[C@H](CCC(=O)[*:2])N[*:1]; NMeI = CC[C@H](C)[C@H](NC)C(=O)O; AEEA = NCCOCCOCC(=O)O; Aib = CC(C)(N)C(=O)O
Target: human corticotropin-releasing factor 2a (CRF2a receptor) (human), Q13324
Test: cell-based or functional assay

Sequence of human corticotropin-releasing factor 2a (CRF2a receptor) (human), Q13324 (Q13324 20-411): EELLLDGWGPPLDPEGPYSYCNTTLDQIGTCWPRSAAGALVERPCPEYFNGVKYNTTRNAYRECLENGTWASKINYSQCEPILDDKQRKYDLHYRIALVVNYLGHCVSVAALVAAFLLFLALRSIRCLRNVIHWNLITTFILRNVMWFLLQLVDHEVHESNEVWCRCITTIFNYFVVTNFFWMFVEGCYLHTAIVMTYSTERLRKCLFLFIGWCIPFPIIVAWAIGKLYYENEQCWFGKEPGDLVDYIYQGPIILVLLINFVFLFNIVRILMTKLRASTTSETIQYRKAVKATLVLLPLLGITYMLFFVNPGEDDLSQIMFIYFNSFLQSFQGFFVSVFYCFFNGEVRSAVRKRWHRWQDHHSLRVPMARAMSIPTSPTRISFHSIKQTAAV

B1: SEQ ID NO 236 (peptide)
peptide: Ac-IVLSLD[dV]PIKLK([AEEA-AEEA-γGlu-C20 diacid])KILLEQEKQKEQREQAETN[Aib]QILAQV-NH2
SMILES: CC[C@H](C)[C@H](NC(C)=O)C(=O)N[C@H](C(=O)N[C@@H](CC(C)C)C(=O)N[C@@H](CO)C(=O)N[C@@H](CC(C)C)C(=O)N[C@@H](CC(=O)O)C(=O)N[C@@H](C(=O)N1CCC[C@H]1C(=O)N[C@H](C(=O)N[C@@H](CCCCN)C(=O)N[C@@H](CC(C)C)C(=O)N[C@@H](CCCCNC(=O)COCCOCCNC(=O)COCCOCCNC(=O)CC[C@H](NC(=O)CCCCCCCCCCCCCCCCCCC(=O)O)C(=O)O)C(=O)N[C@@H](CCCCN)C(=O)N[C@H](C(=O)N[C@@H](CC(C)C)C(=O)N[C@@H](CC(C)C)C(=O)N[C@@H](CCC(=O)O)C(=O)N[C@@H](CCC(N)=O)C(=O)N[C@@H](CCC(=O)O)C(=O)N[C@@H](CCCCN)C(=O)N[C@@H](CCC(N)=O)C(=O)N[C@@H](CCCCN)C(=O)N[C@@H](CCC(=O)O)C(=O)N[C@@H](CCC(N)=O)C(=O)N[C@@H](CCCNC(=N)N)C(=O)N[C@@H](CCC(=O)O)C(=O)N[C@@H](CCC(N)=O)C(=O)N[C@@H](C)C(=O)N[C@@H](CCC(=O)O)C(=O)N[C@H](C(=O)N[C@@H](CC(N)=O)C(=O)NC(C)(C)C(=O)N[C@@H](CCC(N)=O)C(=O)N[C@H](C(=O)N[C@@H](CC(C)C)C(=O)N[C@@H](C)C(=O)N[C@@H](CCC(N)=O)C(=O)N[C@H](C(N)=O)C(C)C)[C@@H](C)CC)[C@@H](C)O)[C@@H](C)CC)[C@@H](C)CC)C(C)C)C(C)C
EC50 [nM] (cAMP): 0.54 nM

B4: SEQ ID NO 237 (peptide)
peptide: [NMeI]VLSLD[dV]PIKLK([AEEA-AEEA-γGlu-C20 diacid])KILLEQEKQKEQREQAETN[Aib]QILAQV-NH2
modifications: N-terminus assumed
SMILES: CC[C@H](C)[C@H](NC)C(=O)N[C@H](C(=O)N[C@@H](CC(C)C)C(=O)N[C@@H](CO)C(=O)N[C@@H](CC(C)C)C(=O)N[C@@H](CC(=O)O)C(=O)N[C@@H](C(=O)N1CCC[C@H]1C(=O)N[C@H](C(=O)N[C@@H](CCCCN)C(=O)N[C@@H](CC(C)C)C(=O)N[C@@H](CCCCNC(=O)COCCOCCNC(=O)COCCOCCNC(=O)CC[C@H](NC(=O)CCCCCCCCCCCCCCCCCCC(=O)O)C(=O)O)C(=O)N[C@@H](CCCCN)C(=O)N[C@H](C(=O)N[C@@H](CC(C)C)C(=O)N[C@@H](CC(C)C)C(=O)N[C@@H](CCC(=O)O)C(=O)N[C@@H](CCC(N)=O)C(=O)N[C@@H](CCC(=O)O)C(=O)N[C@@H](CCCCN)C(=O)N[C@@H](CCC(N)=O)C(=O)N[C@@H](CCCCN)C(=O)N[C@@H](CCC(=O)O)C(=O)N[C@@H](CCC(N)=O)C(=O)N[C@@H](CCCNC(=N)N)C(=O)N[C@@H](CCC(=O)O)C(=O)N[C@@H](CCC(N)=O)C(=O)N[C@@H](C)C(=O)N[C@@H](CCC(=O)O)C(=O)N[C@H](C(=O)N[C@@H](CC(N)=O)C(=O)NC(C)(C)C(=O)N[C@@H](CCC(N)=O)C(=O)N[C@H](C(=O)N[C@@H](CC(C)C)C(=O)N[C@@H](C)C(=O)N[C@@H](CCC(N)=O)C(=O)N[C@H](C(N)=O)C(C)C)[C@@H](C)CC)[C@@H](C)O)[C@@H](C)CC)[C@@H](C)CC)C(C)C)C(C)C
EC50 [nM] (cAMP): 0.41 nM

Results, then the binder that gave them:

EC50 [nM] (cAMP): 0.11 nM
B2: SEQ ID NO 239 (peptide)
peptide: [NMeI]VLSLD[dV]PIKLK([AEEA-AEEA-γGlu-C20 diacid])KILLEQEKQK[Aib]QREQAETN[Aib]QILAQV-NH2
modifications: N-terminus assumed
SMILES: CC[C@H](C)[C@H](NC)C(=O)N[C@H](C(=O)N[C@@H](CC(C)C)C(=O)N[C@@H](CO)C(=O)N[C@@H](CC(C)C)C(=O)N[C@@H](CC(=O)O)C(=O)N[C@@H](C(=O)N1CCC[C@H]1C(=O)N[C@H](C(=O)N[C@@H](CCCCN)C(=O)N[C@@H](CC(C)C)C(=O)N[C@@H](CCCCNC(=O)COCCOCCNC(=O)COCCOCCNC(=O)CC[C@H](NC(=O)CCCCCCCCCCCCCCCCCCC(=O)O)C(=O)O)C(=O)N[C@@H](CCCCN)C(=O)N[C@H](C(=O)N[C@@H](CC(C)C)C(=O)N[C@@H](CC(C)C)C(=O)N[C@@H](CCC(=O)O)C(=O)N[C@@H](CCC(N)=O)C(=O)N[C@@H](CCC(=O)O)C(=O)N[C@@H](CCCCN)C(=O)N[C@@H](CCC(N)=O)C(=O)N[C@@H](CCCCN)C(=O)NC(C)(C)C(=O)N[C@@H](CCC(N)=O)C(=O)N[C@@H](CCCNC(=N)N)C(=O)N[C@@H](CCC(=O)O)C(=O)N[C@@H](CCC(N)=O)C(=O)N[C@@H](C)C(=O)N[C@@H](CCC(=O)O)C(=O)N[C@H](C(=O)N[C@@H](CC(N)=O)C(=O)NC(C)(C)C(=O)N[C@@H](CCC(N)=O)C(=O)N[C@H](C(=O)N[C@@H](CC(C)C)C(=O)N[C@@H](C)C(=O)N[C@@H](CCC(N)=O)C(=O)N[C@H](C(N)=O)C(C)C)[C@@H](C)CC)[C@@H](C)O)[C@@H](C)CC)[C@@H](C)CC)C(C)C)C(C)C

EC50 [nM] (cAMP): 0.11 nM
B3: SEQ ID NO 238 (peptide)
peptide: Ac-IVLSLD[dV]PIKLK([AEEA-AEEA-γGlu-C20 diacid])KILLEQEKQKKQREQAETN[Aib]QILAQV-NH2
SMILES: CC[C@H](C)[C@H](NC(C)=O)C(=O)N[C@H](C(=O)N[C@@H](CC(C)C)C(=O)N[C@@H](CO)C(=O)N[C@@H](CC(C)C)C(=O)N[C@@H](CC(=O)O)C(=O)N[C@@H](C(=O)N1CCC[C@H]1C(=O)N[C@H](C(=O)N[C@@H](CCCCN)C(=O)N[C@@H](CC(C)C)C(=O)N[C@@H](CCCCNC(=O)COCCOCCNC(=O)COCCOCCNC(=O)CC[C@H](NC(=O)CCCCCCCCCCCCCCCCCCC(=O)O)C(=O)O)C(=O)N[C@@H](CCCCN)C(=O)N[C@H](C(=O)N[C@@H](CC(C)C)C(=O)N[C@@H](CC(C)C)C(=O)N[C@@H](CCC(=O)O)C(=O)N[C@@H](CCC(N)=O)C(=O)N[C@@H](CCC(=O)O)C(=O)N[C@@H](CCCCN)C(=O)N[C@@H](CCC(N)=O)C(=O)N[C@@H](CCCCN)C(=O)N[C@@H](CCCCN)C(=O)N[C@@H](CCC(N)=O)C(=O)N[C@@H](CCCNC(=N)N)C(=O)N[C@@H](CCC(=O)O)C(=O)N[C@@H](CCC(N)=O)C(=O)N[C@@H](C)C(=O)N[C@@H](CCC(=O)O)C(=O)N[C@H](C(=O)N[C@@H](CC(N)=O)C(=O)NC(C)(C)C(=O)N[C@@H](CCC(N)=O)C(=O)N[C@H](C(=O)N[C@@H](CC(C)C)C(=O)N[C@@H](C)C(=O)N[C@@H](CCC(N)=O)C(=O)N[C@H](C(N)=O)C(C)C)[C@@H](C)CC)[C@@H](C)O)[C@@H](C)CC)[C@@H](C)CC)C(C)C)C(C)C

From US20260001928A1 (CORTERIA PHARMACEUTICALS, priority 2022, published 2026)
